Molecular target: T1, MAF1 (His-tagged, Fitzgerald 80R-1955) (UniProt Q9H063 1-256)
T1 sequence: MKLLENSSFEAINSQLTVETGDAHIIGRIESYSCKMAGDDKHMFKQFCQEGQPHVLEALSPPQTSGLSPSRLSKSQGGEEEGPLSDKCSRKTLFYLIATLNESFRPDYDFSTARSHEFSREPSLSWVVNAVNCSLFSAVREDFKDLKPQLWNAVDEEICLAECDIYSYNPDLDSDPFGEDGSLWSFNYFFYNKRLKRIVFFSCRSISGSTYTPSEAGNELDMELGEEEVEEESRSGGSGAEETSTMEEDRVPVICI
Test: colorimetric DNA-protein binding assay (ab117139); 40 ng biotin probe, 500 ng MAF1; IP-qPCR: 20 mM HEPES pH 7.6, 150 mM NaCl, 0.25 mM EDTA, 10% glycerol, 0.2% NP40, 1 mM DTT, 200 ng BSA, 50 ul, 20 ng DNA, 400 ng MAF1, 4 C/ice; colorimetric: Abcam ab117139 kit conditions
Conditions: protein: commercial; tags: His6; label: 5' biotin (probe)

B1: p21 A-box probe (CDKN1A MIR3) (dsDNA)
DNA 1: AATCAACAACTTTGTATACTTAAGTTCAGTGGACCTCAATTTCCTCATCTGTGAAATAAA
DNA 2: TTTATTTCACAGATGAGGAAATTGAGGTCCACTGAACTTAAGTATACAAAGTTGTTGATT
B1: binds.

— publication PMC4480132, “MAF1 represses CDKN1A through a Pol III-dependent mechanism”
